# Measurements: the supplement of paper PMC12042874
# ± gives the uncertainty stated by the source.
# Test: amyloid nucleation score (Sup35N fusion, yeast selection) (log enrichment); library NNK2; higher = more nucleation; inactive = no reads after selection
# Outline: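 Output and input plasmid inserts were sequenced by Illumina after psi-negative yeast carrying Sup35N fused to peptides of 20 random codons had been induced 24 hours with 100 μM copper sulfate and grown 7 days at 30°C on medium lacking adenine and uracil. The nucleation score is the DiMSum log enrichment of output over input reads, centred on the mode score of non-aggregating sequences. Sequences with under 100 input reads were excluded.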
row,Substance,amyloid nucleation score
1,DPVSYILDWASRGNS,0.523 ± 0.64
2,DPYYLKGYCVWEEYSWCPS,-0.749 ± 0.55
3,DQVLHCSLDQSVGGSDQL,inactive
4,DRGTGNRGSCDRSYLDSGKV,0.963 ± 0.29
5,DRIYNVGRSRTGRSLFYSPV,-1.19 ± 0.38
6,DRLVSLAYLMWFGKMGWDKG,0.05 ± 0.51
7,DRVCGLPNVHSCVCYFAGRN,5.47 ± 0.076
8,DSIGVVFEVKTGKARASGVV,0.171 ± 0.49
9,DSLKFSLRLVHLPLPIYGCC,1.5 ± 0.43
10,DSLMQVNWN,1.01 ± 0.36
11,DSLNCGSRCKSAGDSNRWSL,0.11 ± 0.65
12,DSNTSSDILGLSYLYGRTRL,0.168 ± 0.37
13,DSPFLQNLMWNIFVGRIATM,-0.272 ± 0.31
14,DSRTFGITYYNDVLITGLCR,-0.709 ± 0.39
15,DSSVQRRLS,0.121 ± 0.56
16,DSWNRYNPFCPWKSYVTDSH,-0.926 ± 0.76
17,DTGNMVSEKPGGILSDMGRI,inactive
18,DTGSPDGWAQWLPYSEFLGM,-0.283 ± 0.65
19,DTIGAATLTITVWNSFMVGP,4.15 ± 0.076
20,DTLFLTCPSLHH,0.811 ± 0.58
21,DTLWEGSLLNVYFVDVIRST,0.06 ± 0.55
22,DTNLFTGGSLSVFYFDDGDK,2.96 ± 0.15

row,Substance,amyloid nucleation score
1,DTNVCHIYFGFELLSRFFCN,0.252 ± 0.36
2,DTPITDCELPAYFQVITNWL,0.007 ± 0.76
3,DTTALHRVTASTLGHRFSLG,0.58 ± 0.56
4,DTVLAI,0.035 ± 0.74
5,DVCLHMGKYSNVLILGHNWS,-0.449 ± 0.36
6,DVFYRSVPMQVGWQVMWACD,0.703 ± 0.15
7,DVGCAMPSYTRGWYVYSNLM,0.58 ± 0.42
8,DVKIVYSKTDRWRMGRSPES,1.55 ± 0.2
9,DVKWA,1.1 ± 0.21
10,DVLVINKLHLRWAGFDARGI,5.05 ± 0.1
11,DVMYFGASLGTFVGVIADWE,inactive
12,DVSGLNIVERGYKRCTGGND,-0.054 ± 0.62
13,DVWIFMTECGDAV,0.743 ± 0.81
14,DVWWTYMYFKMSTVHAMSLF,-0.113 ± 1.1
15,DWRSLRLGVK,-0.065 ± 0.32
16,DYGNLYL,-0.291 ± 1.1
17,DYIDKPELLSVLGTRQMKCF,0.241 ± 0.35
18,DYLKRDVSTFSLS,-0.021 ± 0.29
19,DYNKLVAWALCLCFFRFRRN,0.762 ± 0.81
20,DYNSNMSFSRLCTRVTCHSM,inactive
21,DYSVEGHLRMLLNKKRVGVE,-1.01 ± 0.76
22,EALSLLSR,-0.22 ± 1

row,Substance,amyloid nucleation score
1,EAWADGSIMYSYTRPDGDKV,0.421 ± 0.24
2,ECRGCAWA,3.95 ± 0.046
3,ECVRCC,-1.11 ± 0.76
4,EDFVLWLMW,-0.641 ± 0.63
5,EEQKSYSENMPV,-0.21 ± 0.56
6,EERVCLSPSDSSSRMLGQKV,-0.078 ± 0.35
7,EFCIHVSVLINPRGSNYDKW,-0.487 ± 1.1
8,EFDQWFLLFSLRSSFGLYLF,0.078 ± 0.25
9,EFRTAFLVI,0.138 ± 1.1
10,EFRWYNFLWY,-0.618 ± 1.1
11,EGTCPSSGNILSWKSFCVVG,-0.519 ± 0.25
12,EGTTKFDWHYYQVSTGNFAS,1.05 ± 0.51
13,EGVKF,0.436 ± 0.8
14,EGVKLECVLYVYDHSARRLL,inactive
15,EHSWIKLCIEWMSKPIGARR,0.927 ± 0.32
16,EITSKMSSWGSLTASALTIS,-0.104 ± 0.48
17,EKVGS,-0.097 ± 1.1
18,ELAMNIMMAFYYVCSIISTE,inactive
19,ELDWKASTIGKMNHIRLERR,0.145 ± 0.23
20,ELFYDLSQTCQMCF,-0.759 ± 0.64
21,ELILFITYTCIFWADCGRLY,-2.12 ± 1.1
22,ELKFSINWHW,4.4 ± 0.083

row,Substance,amyloid nucleation score
1,ELLHFSSISTS,inactive
2,ELLYWCANHDAGIVRVEFWW,1.48 ± 0.1
3,ELQRKNTGLKVDLKAHIHRF,5.37 ± 0.063
4,ELVLF,-0.454 ± 0.42
5,EMCCTENCLEGSKVLAQFYC,-1.02 ± 0.61
6,EMLKHCYTSTQSSYSFIYWR,-0.27 ± 0.65
7,EMYVNFMHVDGDGVPQHDAW,0.929 ± 0.37
8,EPSCTATKFVSGTMF,2.17 ± 0.11
9,EPVGYSMLGHVIKTVLVLAR,inactive
10,EQMGCTGLVFNVCEGFEDVM,3.44 ± 0.059
11,EQRILRLSRSIESFSMNRNQ,-0.593 ± 0.64
12,ERGQGKHRNEGVHYNRWCGC,2.15 ± 0.17
13,ERGSGASMFVDGGRYRSRPM,-0.159 ± 1
14,ERRRFRVDRKVLAFFYVSGT,0.046 ± 0.37
15,ERRTCTRLPNVSRARIR,1.27 ± 0.21
16,ERTVKETFSTGNSYEGTGRR,-0.468 ± 0.53
17,ESAAER,-0.186 ± 0.76
18,ESHTGYNIPVIRSHPPYNRS,-0.869 ± 0.64
19,ESLEADN,inactive
